Assay: soluble on expression in E. coli; label from the status in PepcDB or PDB records

Row | Sequence | soluble on expression in E. coli
1 | MDHHHHHHHHMPRTTGMNVAVVGGGISGLAVAHHLRSRGTDAVLLESSARLGGAVGTHALAGYLVEQGPNSFLDREPATRALAAALNLEGRIRAADPAAKRRYVYTRGRLRSVPASPPAFLASDILPLGARLRVAGELFSRRAPEGVDESLAAFGRRHLGHRATQVLLDAVQTGIYAGDVEQLSVAATFPMLVKMEREHRSLILGAIRAQKAQRQAALPAGTAPKLSGALSTFDGGLQVLIDALAASLGDAAHVGARVEGLAREDGGWRLIIEEHGRRAELSVAQVVLAAPAHATAKLLRPLDDALAALVAGIAYAPIAVVHLGFDAGTLPAPDGFGFLVPAEEQRRMLGAIHASTTFPFRAEGGRVLYSCMVGGARQPGLVEQDEDALAALAREELKALAGVTARPSFTRVFRWPLGIPQYNLGHLERVAAIDAALQRLPGLHLIGNAYKGVGLNDCIRNAAQLADALVAGNTSHAP | soluble
2 | MDIGDHGTHCAGIIAGFGPNVKIASLKHLSGNKFKDLDNWVSTMIKAINYADAMDIKIVNVSLGLHKSQIGDRPFDSQALNDAISNADLLFVTAAGNFNKNIDLPDDVIYPASCTAENIITVANTDKDDKLYESSNYGVISVDLAAPGTDIRSTIPTHLAGEGGPYDIKTGTSMSAPHVAGAAALLLSSNPSLTTQQLKDLILSSVDFLPDLQGKVATSGRLNVAKALRKIRTSVKIGDIDGNGEISSIDYAILKSHLINSNLTFKQLAAADVDGNGYVNSIDLAILQMYLLGKGGTSDIGKNRIYTYGDIDNNGIVDENDYILICNHINGTGQLSDASLFAADADGNNVIDQTDRILIEKYITGRITHLPVGNQ | not soluble
3 | MDIGDNSKFDSATDLPVEQEQEQETEQEGEPEESSEQDLVEEVDWKDIPVPADAGPNMKWEFQEISDNFEYEAPADNKGSEFLEKWDDFYHNAWAGPGLTEWKRDRSYVADGELKMWATRKPGSDKINMGCITSKTRVVYPVYIEARAKVMNSTLASDVWLLSADDTQEIDILEAYGADYSESAGKDHSYFSKKVHISHHVFIRDPFQDYQPKDAGSWFEDGTVWNKEFHRFGVYWRDPWHLEYYIDGVLVRTVSGKDIIDPKHFTNTTDPGNTEIDTRTGLNKEMDIIINTEDQTWRSSPASGLQSNTYTPTDNELSNIENNTFGVDWIRIYKPVEKLEHHHHHH | soluble
4 | MDIISVALKRHSTKAFDASKKLTPEQAEQIKTLLQYSPSSTNSQPWHFIVASTEEGKARVAKSAAGNYVFNERKMLDASHVVVFCAKTAMDDVWLKLVVDQEDADGRFATPEAKAANDKGRKFFADMHRKDLHDDAEWMAKQVYLNVGNFLLGVAALGLDAVPIEGFDAAILDAEFGLKEKGYTSLVVVPVGHHSVEDFNATLPKSRLPQNITLTEV | soluble
5 | MDIKNSPSSLNSPSSYNCSQSILPLEHGSIYIPSSYVDSHHEYPAMTFYSPAVMNYSIPSNVTNLEGGPGRQTTSPNVLWPTPGHLSPLVVHRQLSHLYAEPQKSPWCEARSLEHTLPVNRETLKRKVSGNRCASPVTGPGSKRDAHFCAVCSDYASGYHYGVWSCEGCKAFFKRSIQGHNDYICPATNQCTIDKNRRKSCQACRLRKCYEVGMVKCGSRRERCGYRLVRRQRSADEQLHCAGKAKRSGGHAPRVRELLLDALSPEQLVLTLLEAEPPHVLISRPSAPFTEASMMMSLTKLADKELVHMISWAKKIPGFVELSLFDQVRLLESCWMEVLMMGLMWRSIDHPGKLIFAPDLVLDRDEGKCVEGILEIFDMLLATTSRFRELKLQHKEYLCVKAMILLNSSMYPLVTATQDADSSRKLAHLLNAVTDALVWVIAKSGISSQQQSMRLANLLMLLSHVRHASNKGMEHLLNMKCKNVVPVYDLLLEMLNAHVLRGCKSSITGSECSPAEDSKSKEGSQNPQSQ | soluble
6 | MDISSTEIWDAIRRNSYLLYYQPKVDAKTNKIIGFEGLVRLKTATTILAPIDFFDDIVLLNATREMQDFVAETAIKQINQLGGRFSISINIPAHYVASSTYMTFLHDYVKEHLKYPECLEIEIIERGEITELAIADKNLRKIKDLGVKVSMDDFGKGYSSLAYLRSLPIDIVKTDMSFIALLKTDRKQQIIIRAIVNLCHDLGGKVVTEGVEDMEQVEKLREMKVDYFQGYYFSRPLPMEEIKQKYSIV | soluble
7 | MDKEIKICPRCEQGYLYHAKPKYFSGEVILCDECYAMWLGDMKIFYGQYGKDFYDYHEFMKDKGIEEINMWEGELFDHPYYEDEKFK | not soluble
8 | MDLEEQKKAVIEKLIREGYIKSKRVIDALLKVPREEFLPEHLKEYAYVDTPLEIGYGQTISAIHMVGMMCELLDLKPGMKVLEIGTGCGYHAAVTAEIVGEDGLVVSIERIPELAEKAERTLRKLGYDNVIVIVGDGTLGYEPLAPYDRIYTTAAGPKIPEPLIRQLKDGGKLLMPVGRYLQRLVLAEKRGDEIIIKDCGPVAFVPLVGKEGFQG | soluble
